In IntAct's records for PubMed 21600204:

B1: Hemolysin expression-modulating protein Hha (Escherichia coli (strain K12)), P0ACE3 (parent)
chain: MSEKPLTKTDYLMRLRRCQTIDTLERVIEKNKYELSDNELAVFYSAADHRLAELTMNKLYDKIPSSVWKFIR
partner: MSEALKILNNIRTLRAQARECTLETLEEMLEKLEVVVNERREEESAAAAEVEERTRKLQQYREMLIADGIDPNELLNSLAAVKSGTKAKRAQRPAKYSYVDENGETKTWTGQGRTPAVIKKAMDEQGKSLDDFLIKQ
B2: OriC-binding nucleoid-associated protein (Escherichia coli (strain K12)), P64467 (parent)
chain: MTVQDYLLKFRKISSLESLEKLYDHLNYTLTDDQELINMYRAADHRRAELVSGGRLFDLGQVPKSVWHYVQ
partner: B1 partner

Variants of: B1
Conditions: with hns_ecoli hns

Variant | effect of a mutation on the interaction
MSEKPLTKTDYLMRLRRCQTIDTLQRVIEKNKYELSDNELAVFYSAADHRLAELTMNKLYDKIPSSVWKFIR | decreasing interaction

Variants of: B1
Conditions: with hns_ecoli hns
Remark: another data set of the same source

Variant | effect of a mutation on the interaction
MSEKPLTKTDYLMRLRRCQTIDTLERVIEKNKYELSDNELAVFYSAANHRLAELTMNKLYDKIPSSVWKFIR | disrupting interaction

Variants of: B2
Conditions: with hns_ecoli hns

Variant | effect of a mutation on the interaction
MTVQDYLLKFRKISSLESLEKLYDHLNYTLTDDQELINMYRAANHRRAELVSGGRLFDLGQVPKSVWHYVQ | disrupting interaction
